Patent US20080008719A1 (Alexion, published 2008)

Tests used:
Integrin alpha3/beta1 = molecular target: T1, Integrin alpha3/beta1 (human, UniProt P26006 33-1051; P05556 21-798); assay: immunoprecipitation from PC-3 membrane lysate with biotinylated Fab, mass spectrometry
T1 construct: also called α3β1
Experimental: PC-3 cell membranes (10⁸ cell equivalents/mL) in Nonidet P-40 Lysis Buffer (1% Nonidet P-40, 50 mM Tris.HCl pH 7.5, 0.15 M NaCl, 10% glycerol plus Complete Protease Inhibitors) were incubated with 50 μg/mL chicken egg white avidin for 30 min on ice. Insoluble material was removed by centrifugation for 30 min at 150,000 g. The lysate was precleared with normal rabbit serum and protein G Sepharose beads (Amersham-Pharmacia, Piscataway, N.J.). Antigens were captured by adding biotinylated Fabs (10 μg/mL) to the lysate and incubating overnight at 4° C. Immobilized streptavidin was added (50 μL of packed beads per mL) for 3 h at 4° C. with gentle mixing, followed by five washes with Nonidet P-40 Lysis Buffer. After SDS-PAGE separation, antigen bands were cut from the gel.

[1] = molecular target: CUB-domain-containing protein 1 (CDCP1) (human) (UniProt Q9H5V8); assay: flow cytometry on PC-3 cells

T1 sequence (P26006 33-1051 limits assumed, chain 1 of 2): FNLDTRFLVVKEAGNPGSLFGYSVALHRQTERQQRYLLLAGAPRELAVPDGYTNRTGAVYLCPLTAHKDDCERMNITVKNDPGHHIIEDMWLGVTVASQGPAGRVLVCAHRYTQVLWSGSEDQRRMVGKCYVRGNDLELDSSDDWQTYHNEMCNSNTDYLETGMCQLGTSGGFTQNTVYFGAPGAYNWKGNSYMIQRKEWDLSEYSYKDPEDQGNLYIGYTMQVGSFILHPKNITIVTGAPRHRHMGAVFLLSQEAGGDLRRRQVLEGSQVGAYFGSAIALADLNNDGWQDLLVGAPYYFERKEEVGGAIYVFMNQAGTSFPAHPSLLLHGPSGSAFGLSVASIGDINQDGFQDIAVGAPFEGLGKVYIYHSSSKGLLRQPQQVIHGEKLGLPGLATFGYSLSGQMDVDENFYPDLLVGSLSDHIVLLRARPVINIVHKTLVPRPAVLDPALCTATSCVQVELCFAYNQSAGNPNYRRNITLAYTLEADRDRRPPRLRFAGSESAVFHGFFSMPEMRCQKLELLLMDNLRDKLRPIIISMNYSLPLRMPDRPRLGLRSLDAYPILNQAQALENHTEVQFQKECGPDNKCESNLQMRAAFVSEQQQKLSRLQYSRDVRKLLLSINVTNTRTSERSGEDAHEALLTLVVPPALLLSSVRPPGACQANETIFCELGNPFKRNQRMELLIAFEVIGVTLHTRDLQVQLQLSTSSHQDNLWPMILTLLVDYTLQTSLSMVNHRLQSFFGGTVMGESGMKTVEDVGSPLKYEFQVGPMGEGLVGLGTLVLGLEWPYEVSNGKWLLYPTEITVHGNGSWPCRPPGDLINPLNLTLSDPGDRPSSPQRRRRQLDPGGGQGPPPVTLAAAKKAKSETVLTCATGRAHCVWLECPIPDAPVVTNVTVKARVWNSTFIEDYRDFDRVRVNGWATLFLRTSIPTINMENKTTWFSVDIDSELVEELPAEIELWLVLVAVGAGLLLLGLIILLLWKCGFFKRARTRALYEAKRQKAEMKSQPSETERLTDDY
T1 sequence (P05556 21-798 limits assumed, chain 2 of 2): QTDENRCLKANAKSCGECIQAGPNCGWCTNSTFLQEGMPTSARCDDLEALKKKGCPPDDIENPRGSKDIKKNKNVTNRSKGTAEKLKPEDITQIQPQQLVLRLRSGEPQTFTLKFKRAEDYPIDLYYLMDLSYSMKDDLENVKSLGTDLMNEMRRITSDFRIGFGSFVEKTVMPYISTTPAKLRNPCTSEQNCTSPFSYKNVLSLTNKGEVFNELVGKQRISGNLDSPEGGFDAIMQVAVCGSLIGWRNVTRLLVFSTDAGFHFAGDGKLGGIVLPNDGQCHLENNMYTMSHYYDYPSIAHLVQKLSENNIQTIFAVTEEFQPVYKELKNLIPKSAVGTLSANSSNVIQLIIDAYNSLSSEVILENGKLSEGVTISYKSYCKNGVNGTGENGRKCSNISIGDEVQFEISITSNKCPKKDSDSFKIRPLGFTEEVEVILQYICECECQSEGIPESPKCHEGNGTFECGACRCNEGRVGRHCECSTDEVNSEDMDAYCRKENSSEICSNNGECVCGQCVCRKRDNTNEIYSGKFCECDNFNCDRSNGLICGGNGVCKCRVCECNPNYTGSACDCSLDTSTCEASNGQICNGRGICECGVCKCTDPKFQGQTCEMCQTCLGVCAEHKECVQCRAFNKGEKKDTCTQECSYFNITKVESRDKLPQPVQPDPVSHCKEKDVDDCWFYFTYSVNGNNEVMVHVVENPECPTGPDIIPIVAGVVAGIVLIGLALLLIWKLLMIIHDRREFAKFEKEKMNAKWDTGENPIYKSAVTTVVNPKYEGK

| binding result (Integrin alpha3/beta1) | percent saturation of PC-3 cells at 160 nM Fab [1] [%] | Binder |
| --- | --- | --- |
| binds |  | Fab 84H7 (Fab, V domains shown, also called 84H7 (63C10)) VH: EVQLQQSGAVLLKPGASVKLSCTASGFNIKDTYIHWMKQRPEQGLEWIGRIDPADGNTKYDPKFQGKATITADTSSNTAYLQLSSLTSEDTAVYYCTTAFYYSMDYWGQGTSVTVSS VL: DIVLTQSQKFMSTSVGDRVSVTCKASQNVGTNVAWYQQKPGQSPKALIYSASYRYSGVPDRFTGSGSGTDFTLTISNVQSEDLAEYFCQQYNSYPRTFGGGTKLEIKR |
| binds |  | Fab 36C1 (Fab, V domains shown) VH: EVQLQQSGAELVKPGASVKLSCTASGFNIKDTYIHWMNQRPEQGLEWIGRIDPADGNTKYDPKFQDKATITADTSSNTAYLHLSSLTSEDTAVYYCTTAFYYSMDYWGQGTSVTVSS VL: DIVMTQSQKFMSTSVGDRVSVTCKASQNVGTNVAWYQQTPGQSPKALIYSASYRYSGVPDRFTGSGSGTDFTLTINNVQSEDLAEYFCQQYNSYPRTFGGGTTLEIKR |
|  | 80 | Fab 25A11 (murine Fab) (Fab, V domains shown) VH: EVQLQQPGAELVKPGASVKMSCKASGYTFTSYYMYWVKQRPGQGLEWIGEINPSHGGTNFNEKFKNKATLTVDKSSSTVYMQLSSLTSEDSAVYYCTRGGNYPYFAMDYWGQGTSVTVSS VL: DIQMTQTTSSLSASLGDRVTISCRASQDISNYLNWYQQKPDGTVKLLIYYTSRLHSGVPSRFSGSGSGTDYSLTISNLEQEDIATYFCQQGNTLPWTFGGGTKLEIKR |
| binds |  | Fab 23E9 (Fab, V domains shown) VH: EVELQQSGAELVKPGASVKLSCKASGYTFTNYYMHWVKQRPGQGLEWIGEINPSSGGTNFNEKFKSKATLTVDKSSSTAYMQLSSLTSEDSAVYYCTRFDRTENGMDYWGQGTSVTVSS VL: DNVLTQSPASLAVSPGQRATISCKASQSVDYDGDNYMNWYQQKPGQPPKLLIYAASNLESGIPARFSGSGSGTDFTLNIHPVEEEDAATYFCQQSDEDPYTFGGGTKLEIKR |
| binds |  | Fab 61E10 (Fab, V domains shown) VH: EVQLQQSGAELVKPGASVKLSCKASGYTFTNYYMHWVKQRPGQGLEWIGEINPSSGGTNFNEKFKSKATLTVDKSSSTAYMQLSSLTSEDSAVYYCTRFDRTENGLDYWGQGTSVTVSS VL: DIVMTQSPASLAVSLGQRATISCKASQSVDYDGDNYMNWYQQKPGQPPKLLIYAASNLESGIPARFSGSGSGTDFTLNIHPVEEEDAATYYCQQSNGDPWTFGGGTKLEIKR |
